Laboratory results: patent publication US20240261333A1 (published 2024)

What was measured:
Test in all cases: anti-FLAG co-IP from lysate of N-FLAG B3GNT2 cells, mass spectrometry
[1] = target: T1, DNAJA3 (human, UniProt Q96EY1-2 66-453, limits assumed)
T1 construct: also called NP_001128582.1 (+1)
T1 sequence (looked up): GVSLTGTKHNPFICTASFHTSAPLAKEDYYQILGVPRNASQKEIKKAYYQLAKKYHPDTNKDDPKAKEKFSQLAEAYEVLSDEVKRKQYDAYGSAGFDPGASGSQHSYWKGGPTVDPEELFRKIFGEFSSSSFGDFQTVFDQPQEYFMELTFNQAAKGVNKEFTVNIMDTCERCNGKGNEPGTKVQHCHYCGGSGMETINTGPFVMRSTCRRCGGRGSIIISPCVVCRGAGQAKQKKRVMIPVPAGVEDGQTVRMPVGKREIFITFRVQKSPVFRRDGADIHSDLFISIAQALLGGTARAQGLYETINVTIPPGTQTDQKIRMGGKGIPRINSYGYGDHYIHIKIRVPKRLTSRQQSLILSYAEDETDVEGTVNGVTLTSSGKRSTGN
Experimental: (§1) Cells were plated in 10-cm cell culture dishes and grown to 60-80% confluency. For each condition, two biological replicates were harvested for co-IP. Cells were washed with PBS and 4 mL of lysis buffer (20 mM HEPES, 1% Triton X-100, 150 mM NaCl, 1 mM EDTA, and 10% glycerol) containing protease inhibitor cocktail was added. Cells were scraped and lysate was incubated at 4° C. under rotary agitation for 1 h. Lysate was centrifuged at 14,000×g for 10 min at 4° C. Supernatant was transferred to a new tube and an aliquot was taken as the input. […] For Western blots, 10 μg/mL Chicken Anti-FLAG (Aves labs ET-DY100) and IgY control (R&D Systems AB-101-C) antibodies were biotinylated (Thermo Fisher Scientific 90407) and added to the respective conditions. Lysates with antibodies were incubated at 4° C. under rotary agitation overnight. For each mL of lysate, 50 μL of Pierce Protein A/G Magnetic Beads (Mass spectrometry; Thermo Fisher Scientific 88803) or Pierce Streptavidin Magnetic Beads (Western blot; Thermo Fisher Scientific 88817) was washed twice with lysis buffer. Lysates with antibodies were added to the beads and incubated at 4° C. under rotary agitation for 4 h. Beads were washed with lysis buffer 3 times and resuspended in lysis buffer for storage.
(§2) Magnetic beads were resuspended in 100 mM Tris pH 7.8, reduced, alkylated and digested with trypsin at 37° ° C. overnight. This solution was subjected to solid phase extraction to concentrate the peptides and remove unwanted reagents followed by injection onto a Shimadzu HPLC with fraction collector. Eight fractions were collected and after concentration were injected on a Waters NanoAcquity HPLC equipped with a self-packed Aeris 3 μm C18 analytical column 0.075 mm by 20 cm, (Phenomenex). Peptides were eluted using standard reverse-phase gradients. The effluent from the column was analyzed using a Thermo Orbitrap Elite mass spectrometer (nanospray configuration) operated in a data dependent manner for 54 minutes. The resulting fragmentation spectra were correlated against the known database using Proteome Discover 1.4 (Thermo Fisher Scientific).

[2] = target: T2, IFI16 (human, UniProt Q16666-2 1-729, limits assumed)
T2 construct: also called NP_001193496.1 (+3)
T2 sequence (looked up): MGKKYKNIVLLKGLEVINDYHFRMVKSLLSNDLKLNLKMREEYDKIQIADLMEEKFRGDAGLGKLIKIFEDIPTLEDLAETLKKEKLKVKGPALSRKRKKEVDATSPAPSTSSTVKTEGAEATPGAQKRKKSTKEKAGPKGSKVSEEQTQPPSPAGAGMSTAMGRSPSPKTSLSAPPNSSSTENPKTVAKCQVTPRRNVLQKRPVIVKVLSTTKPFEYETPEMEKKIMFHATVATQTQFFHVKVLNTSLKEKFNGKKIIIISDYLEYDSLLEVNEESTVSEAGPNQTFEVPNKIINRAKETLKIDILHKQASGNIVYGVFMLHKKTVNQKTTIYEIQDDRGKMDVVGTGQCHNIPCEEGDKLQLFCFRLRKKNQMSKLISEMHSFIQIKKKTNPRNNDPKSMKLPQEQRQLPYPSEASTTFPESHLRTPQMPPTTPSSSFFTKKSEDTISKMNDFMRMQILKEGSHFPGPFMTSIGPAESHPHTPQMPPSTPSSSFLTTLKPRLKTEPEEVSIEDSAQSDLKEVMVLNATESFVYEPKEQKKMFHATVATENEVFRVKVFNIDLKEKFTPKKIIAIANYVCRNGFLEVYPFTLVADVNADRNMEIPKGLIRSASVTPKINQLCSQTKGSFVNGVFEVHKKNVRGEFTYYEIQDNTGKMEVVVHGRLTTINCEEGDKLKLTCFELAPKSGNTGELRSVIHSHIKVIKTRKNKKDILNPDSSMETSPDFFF
Experimental: as §1, §2

[3] = target: T3, PDIA4 (human, UniProt P13667 21-645)
T3 construct: also called XP_006716248.1
T3 sequence (looked up): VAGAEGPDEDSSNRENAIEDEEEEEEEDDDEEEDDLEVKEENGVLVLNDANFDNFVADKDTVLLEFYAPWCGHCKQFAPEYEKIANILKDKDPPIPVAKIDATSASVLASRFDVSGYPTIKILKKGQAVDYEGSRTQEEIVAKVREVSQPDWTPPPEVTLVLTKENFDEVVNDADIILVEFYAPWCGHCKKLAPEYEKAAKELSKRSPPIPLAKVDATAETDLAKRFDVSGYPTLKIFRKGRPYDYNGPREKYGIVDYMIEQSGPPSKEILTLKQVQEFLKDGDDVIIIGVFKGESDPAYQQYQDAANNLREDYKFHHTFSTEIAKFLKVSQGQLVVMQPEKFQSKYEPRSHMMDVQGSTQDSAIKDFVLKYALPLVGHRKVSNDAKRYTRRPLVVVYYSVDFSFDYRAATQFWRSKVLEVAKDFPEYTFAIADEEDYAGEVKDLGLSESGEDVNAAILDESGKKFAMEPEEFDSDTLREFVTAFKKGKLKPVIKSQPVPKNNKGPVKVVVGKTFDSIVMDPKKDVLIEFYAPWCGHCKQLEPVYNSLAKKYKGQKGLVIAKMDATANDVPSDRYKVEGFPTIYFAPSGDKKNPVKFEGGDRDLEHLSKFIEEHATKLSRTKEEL
Experimental: as §1, §2

Measured: co-IP mass spectrometry count

B1: N-terminal FLAG tagged B3GNT2 (enzyme, human, UniProt Q9NY97 1-397, looked up)
chain: MSVGRRRIKLLGILMMANVFIYFIMEVSKSSSQEKNGKGEVIIPKEKFWKISTPPEAYWNREQEKLNRQYNPILSMLTNQTGEAGRLSNISHLNYCEPDLRVTSVVTGFNNLPDRFKDFLLYLRCRNYSLLIDQPDKCAKKPFLLLAIKSLTPHFARRQAIRESWGQESNAGNQTVVRVFLLGQTPPEDNHPDLSDMLKFESEKHQDILMWNYRDTFFNLSLKEVLFLRWVSTSCPDTEFVFKGDDDVFVNTHHILNYLNSLSKTKAKDLFIGDVIHNAGPHRDKKLKYYIPEVVYSGLYPPYAGGGGFLYSGHLALRLYHITDQVHLYPIDDVYTGMCLQKLGLVPEKHKGFRTFDIEEKNKNNICSYVDLMLVHSRKPQEMIDIWSQLQSAHLKC
notes: Bait of the co-IP; pulled down from cell lysate with mouse anti-FLAG antibody; also called N-FLAG B3GNT2; N-term FLAG; not shown: N-terminal FLAG tag
0: all assays above
